Laboratory results as given in patent US20240148829A1.

Key:
human IgE (human) [1] = biological target: human IgE (human) (UniProt P01854); test: ELISA-based potency on human IgE; GI-301 100 mg/mL, 250 mM proline, histidine/HCl pH 6.7, 0.1 w/v % Tween 80 and 20 mg/mL methionine; after 35° C., 200 rpm, 14 days; n=2
human IgE (human) [2] = biological target: human IgE (human) (UniProt P01854); test: ELISA-based potency on human IgE; GI-301 100 mg/mL, 250 mM proline, histidine/HCl pH 6.7, no additive; after 35° C., 200 rpm, 5 days; n=2
human IgE (human) [3] = biological target: human IgE (human) (UniProt P01854); test: ELISA-based potency on human IgE; GI-301 100 mg/mL, 250 mM proline, histidine/HCl pH 6.7, 20 mg/mL methionine; after 35° C., 200 rpm, 5 days; n=2
human IgE (human) [4] = biological target: human IgE (human) (UniProt P01854); test: ELISA relative potency; GI-301 dialyzed into 10 mM Tris/HCl pH 7.4, 250 mM mannitol
human IgE (human) [5] = biological target: human IgE (human) (UniProt P01854); test: ELISA-based potency on human IgE; GI-301 100 mg/mL, 250 mM proline, histidine/HCl pH 6.7, 0.1 w/v % Tween 80; after light stress (7.5 hours, 750 W/m^2); n=2
human IgE (human) [6] = biological target: human IgE (human) (UniProt P01854); test: ELISA-based potency on human IgE; GI-301 100 mg/mL, 250 mM proline, histidine/HCl pH 6.7, 0.1 w/v % Tween 80; after 35° C., 200 rpm, 5 days; n=2
human IgE (human) [7] = biological target: human IgE (human) (UniProt P01854); test: ELISA-based potency on human IgE; GI-301 100 mg/mL, 250 mM proline, histidine/HCl pH 6.7, 20 mg/mL methionine; after 35° C., 200 rpm, 14 days; n=2
human IgE (human) [8] = biological target: human IgE (human) (UniProt P01854); test: ELISA-based potency on human IgE; GI-301 100 mg/mL, 250 mM proline, histidine/HCl pH 6.7, 0.1 w/v % Tween 80; after 35° C., 200 rpm, 14 days; n=2
human IgE (human) [9] = biological target: human IgE (human) (UniProt P01854); test: ELISA-based potency on human IgE; GI-301 100 mg/mL, 250 mM proline, histidine/HCl pH 6.7, 20 mg/mL methionine; after light stress (7.5 hours, 750 W/m^2); n=2
human IgE (human) [10] = biological target: human IgE (human) (UniProt P01854); test: ELISA-based potency on human IgE; GI-301 100 mg/mL, 250 mM proline, histidine/HCl pH 6.7, 0.1 w/v % Tween 80 and 20 mg/mL methionine; after light stress (7.5 hours, 750 W/m^2); n=2
human IgE (human) [11] = biological target: human IgE (human) (UniProt P01854); test: ELISA relative potency; GI-301 dialyzed into 10 mM His/HCl pH 6.7, 250 mM mannitol
human IgE (human) [12] = biological target: human IgE (human) (UniProt P01854); test: ELISA-based potency on human IgE; GI-301 100 mg/mL, 250 mM proline, histidine/HCl pH 6.7, 0.1 w/v % Tween 80 and 20 mg/mL methionine; after 35° C., 200 rpm, 5 days; n=2
human IgE (human) [13] = biological target: human IgE (human) (UniProt P01854); test: ELISA-based potency on human IgE; GI-301 100 mg/mL, 250 mM proline, histidine/HCl pH 6.7, no additive; after light stress (7.5 hours, 750 W/m^2); n=2
human IgE (human) [14] = biological target: human IgE (human) (UniProt P01854); test: ELISA relative potency; GI-301 dialyzed into 10 mM His/HCl pH 6.7, 250 mM proline
human IgE (human) [15] = biological target: human IgE (human) (UniProt P01854); test: ELISA-based potency on human IgE; GI-301 100 mg/mL, 250 mM proline, histidine/HCl pH 6.7, no additive; after 35° C., 200 rpm, 14 days; n=2
human IgE (human) [16] = biological target: human IgE (human) (UniProt P01854); test: ELISA relative potency; GI-301 dialyzed into 10 mM Tris/HCl pH 7.4, 250 mM proline
human IgE (human) [17] = biological target: human IgE (human) (UniProt P01854); test: ELISA relative potency; GI-301 dialyzed into 10 mM His/HCl pH 6.7, 250 mM trehalose

Chain of UniProt P01854 (P01854 other isoform, or with tags, fused parts or gaps): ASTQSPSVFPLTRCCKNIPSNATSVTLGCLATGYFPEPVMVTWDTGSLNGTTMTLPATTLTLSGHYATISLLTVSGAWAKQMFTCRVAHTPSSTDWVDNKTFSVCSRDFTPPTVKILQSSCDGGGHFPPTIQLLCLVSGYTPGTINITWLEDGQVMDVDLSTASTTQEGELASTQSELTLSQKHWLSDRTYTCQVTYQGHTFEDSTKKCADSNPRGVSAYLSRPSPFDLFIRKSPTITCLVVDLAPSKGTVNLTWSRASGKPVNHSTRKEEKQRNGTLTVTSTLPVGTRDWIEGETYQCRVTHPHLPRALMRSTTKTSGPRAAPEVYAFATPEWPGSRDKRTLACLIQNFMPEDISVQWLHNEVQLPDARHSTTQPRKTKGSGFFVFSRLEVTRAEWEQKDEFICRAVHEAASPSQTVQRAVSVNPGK

B1: GI-301 (fusion protein dimer comprising FcεRIα ECD and modified Fc region) (Fc fusion, not shown: small tags and cut ends)
chain: VPQKPKVSLNPPWNRIFKGENVTLTCNGNNFFEVSSTKWFHNGSLSEETNSSLNIVNAKFEDSGEYKCQHQQVNESEPVYLEVFSDWLLLQASAEVVMEGQPLFLRCHGWRNWDVYKVIYYKDGEALKYWYENHNISITNATVEDSGTYYCTGKVWQLDYESEPLNITVIKAPREKYWLQSHTQPLGVFLFPPKPKDTLMISRTPEVTCVVVDVSQEDPEVQFNWYVDGVEVHNAKTKPREEQFNSTYRVVSVLTVLHQDWLNGKEYKCKVSNKGLPSSIEKTISKAKGQPREPQVYTLPPSQEEMTKNQVSLTCLVKGFYPSDIAVEWESNGQPENNYKTTPPVLDSDGSFFLYSRLTVDKSRWQEGNVFSCSVMHEALHNHYTQKSLSLSLGK
B1 gave a relative potency by ELISA (human IgE (human) [1]) of 111%, a relative potency by ELISA (human IgE (human) [2]) of 79.7% and a relative potency by ELISA (human IgE (human) [3]) of 113%. It also gave a potency ELISA [%] (relative potency) (human IgE (human) [4]) of 92%, a relative potency by ELISA (human IgE (human) [5]) of 110% and a relative potency by ELISA (human IgE (human) [6]) of 92.1%. It also gave a relative potency by ELISA (human IgE (human) [7]) of 74.2%, a relative potency by ELISA (human IgE (human) [8]) of 80.4% and a relative potency by ELISA (human IgE (human) [9]) of 112%. It also gave a relative potency by ELISA (human IgE (human) [10]) of 111%, a potency ELISA [%] (relative potency) (human IgE (human) [11]) of 98% and a relative potency by ELISA (human IgE (human) [12]) of 94.3%. It also gave a relative potency by ELISA (human IgE (human) [13]) of 110%, a potency ELISA [%] (relative potency) (human IgE (human) [14]) of 101% and a relative potency by ELISA (human IgE (human) [15]) of 105%. For the same binder, the potency ELISA [%] (relative potency) (human IgE (human) [16]) was 106% and the potency ELISA [%] (relative potency) (human IgE (human) [17]) was 103%.
